Test system: E. coli assay strain Km3
Format: cell-based
Settings: library L8 hits, M9 Xgal colony assay; for IND = induction with 200 ppb Cs at 24 hrs (blue colony color intensity thru ImageJ analysis): 200 ppb Chlorsulfuron; for F. IND = fold induction: induction with 200 ppb Cs at 24 hrs/repression at 48 hrs: ratio IND (200 ppb Cs, 24 hrs) / REP (48 hrs)
Experimental: Library L6 was assembled, rescued, ligated into pVER7314, transformed into E. coli KM3 and plated out onto LB carbenicillin/kanamycin, and carbenicillin only control media as before. Library plates were then picked into 42 384-well microtiter plates (˜16,000 clones) containing 60 μl LB carbenicillin (Cb) broth per well. After overnight growth at 37° C. the cultures were stamped onto M9 assay plates containing no inducer, 0.2 ppm, and 2.0 ppm chlorsulfuron as test inducer. Following incubation at 30° C. for ˜48 hrs, putative hits responding to chlorsulfuron treatment as determined by increased blue colony color were re-arrayed into six 96-well microtiter plates and used to stamp a fresh set of M9 assay plates to confirm the above results. For a more detailed analysis of the relative induction by chlorsulfuron, digital photographs were taken of the plates after various time points of incubation at 30° C. and colony color intensity measured using the digital image analysis freeware program ImageJ (Rasband, US National Institutes of Health, Bethesda, Md., USA, rsb.info.nih.gov/ij/, 1997-2007). […] From this analysis sequence-activity relationships were derived. […] Briefly, C at position 100, and Q at positions 108 and 109 strongly correlated with activation, while R at position 138, L at position 170, and A or G at position 173 were highly preferred in clones with the lowest background activity. […] This information will aid in the design of further libraries to improve responsiveness to chlorsulfuron.
Library L8 construction and screening. Fourth round shuffling incorporated the best diversity from Rd3 shuffling (BB1860) as well as computational diversity (Table 14). As diversity was very high the library oligo mix was spiked into the parental hit variant oligo mix (5, 10, and 25% mixes) to titer down the number of residue changes per clone. In addition, to varying residues for Cs activity, seven residues (C68, C86, C88, C121, C144, C195, and C203) were varied with TetR family phylogenetic substitutions in an attempt to reduce the number of cysteine residues in the repressor. The PCR assembled libraries were cloned Sac1/Asc1 into pVER7334. This plasmid encodes PBAD promoter controlled expression of a plant optimized TetR DNA binding domain fused to the wt ligand binding domain of TetR(B) encoded by native Tn10 sequence on a Sac1 to Asc1 fragment. Approximately 15,000 clones were screened for blue colony color on the M9 Xgal assay plates +/−200 ppb Chlorsulfuron (Cs). Clones were ranked by ratio of color with inducer after 24 hrs incubation over colony color without inducer for 48 hrs of incubation. The sequence trend in the overall larger population of hits (first re-array) was that L55, R104, W105 and L170 were maintained while the C144A substitution was highly preferred. Sequence trends within the hit population were then noted with respect to repression, induction and fold induction (which corrects for leakiness).
Mutagenesis reactions were transformed into library strain Km3 and 96 colonies tested for substitution by DNA sequence analysis. Substitutions representing each possible residue at each position were then re-arrayed in triplicate onto M9 X-gal assay plates with 0, 20 and 200 ppb Chlorsulfuron. Plates were incubated at 37° C. for 24 and 48 hrs prior to imaging. Residue substitutions were then ranked by activation (emphasis on 20 ppb Cs) and repression characteristics (emphasis on 48 hr time point). The mutation with the greatest impact on activity was substitution of residue N82 to phenylalanine or tyrosine. […] All other preferred substitutions shown in Table 18 either improved repression or improved sensitivity to inducer without compromising repressor function. Certain residues were indispensible to function such as R104, W105, and W174 as substitutions were not allowed. Other residue positions such as R138 and K177 were also flagged as critical since functional substitutions were extremely limited. […]

Row | Molecule | IND = induction with 200 ppb Cs at 24 hrs (blue colony color intensity thru ImageJ analysis) | F. IND = fold induction: induction with 200 ppb Cs at 24 hrs/repression at 48 hrs | REP = repression measured without inducer after 48 hrs (blue colony color intensity thru ImageJ analysis)
1 | L8-1A04 (protein, Sulfonylurea responsive repressor) MARLDKSKVINSALELLNEVGIEGLTTRKLAQKLGVEQPTLYWHVKNKRALLDALAIEMMDRHQTHYLPLEGESWQDFLRNNAKSCRNALLSHRDGAKVCLGTRWTEQQYETAENMLAFLTQQGFSLENALYALEAARVFTLGAVLFDQESQVAKEERETPTTDSMPPLLRQAWELKDHQGAEPAFLFGLELIISGLEKQLKRESGS | 12.2 | 6.2 | 2.0
2 | L8-2F12 (protein, Sulfonylurea responsive repressor) MARLDKSKVINSALELLNEVGIEGLTTRKLAQKLGVEQPTLYWHVKNKRALLDALAIEMMDRHQTHYSPLEGESWQDFLRNNAKSCRNALLSHRDGAKVCLGTRWTEQQYESAENMLAFLTQQGFSLENALYALQAVRVFTLGWVLFDQESQVAKEERETPTTDSMPPLLRQAWELKDHQGAEPAFLFGLELIIRGLEKQLKSESGS | 2.7 | 3.6 | 0.7
3 | L8-3B08 (protein, Sulfonylurea responsive repressor) MARLDKSKVINSALELLNEVGIEGLTTRKLAQKLGVEQPTLYWHVKNKRALLDALAIEMMDRHQTHYSPLEGESWQDFLRNNAKSLRCALLSHRDGAKVCLGTRWTEQQYESAENMLAFLTQQGFSLENALYAVDAARVFTLGWVLFDQESQVAKEERETPTTDSMPPLLRQAWELKDHQGAEPAFLFGLELIIRGLEKQLKRESGS | 13.0 | 6.1 | 2.1
4 | L8-3D03 (protein, Sulfonylurea responsive repressor) MARLDKSKVINSALELLNEVGIEGLTTRKLAQKLGVEQPTLYWHVKNKRALLDALAIEMMDRHQTHYLPLEGESWQDFLRNNAKSCRNALLSHRDGAKVCLGTRWTEQQYESAENMLAFLTQQGFSLENALYALDAVRVFTLGAVLFDQESQVAKEERETPTTDSMPPLLRQAWELKDHQGAEPAFLFGLELIIRGLEKQLKSESGS | 5.9 | 4.9 | 1.2
5 | L8-1B12 (protein, Sulfonylurea responsive repressor) MARLDKSKVINSALELLNEVGIEGLTTRKLAQKLGVEQPTLYWHVKNKRALLDALAIEMMDRHQTHYSPLEGESWQDFLRNNAKSWRCALLSHRDGAKVCLGTRWTEQQYESAENMLAFLTQQGFSLENALYALEAVRVFTLGWVLFDQESQVAKEERETPTTDSMPPLLRQAWELKDHQGAEPAFLFGLELIIAGLEKQLKAESGS | 12.5 | 5.1 | 2.4
